The values below come from PMC13065503.

For orientation: Kd means the constant that tells how readily two partners part at equilibrium. A low value points to higher affinity.

The target of the series is ArtiMYC (3) (UniProt P01106). Put plainly: EMSA. Conditions: EMSA: 20 mM HEPES pH 8.0, 150 mM NaCl, 5% glycerol, 1 mM EDTA, 2 mM MgCl2, 0.5 mg/mL BSA, 1 mM DTT, 0.05% NP-40; 4 nM DNA; 30 min RT then 15 min on ice; 10% ….
ArtiMYC (3), sequence (P01106 365-454): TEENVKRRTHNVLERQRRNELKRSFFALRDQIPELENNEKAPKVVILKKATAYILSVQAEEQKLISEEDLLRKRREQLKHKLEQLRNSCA

The sequence “ACCCCACCACGTGGTGCCT (double strand) [E-box DNA]” displayed an equilibrium dissociation constant (Kd) of 24 nM.
